Source: patent publication US20250304712A1 (published 2025)

T1: recombinant LY6K protein with histidine and Strep tags (human, UniProt Q17RY6 18-138)
T1 chain: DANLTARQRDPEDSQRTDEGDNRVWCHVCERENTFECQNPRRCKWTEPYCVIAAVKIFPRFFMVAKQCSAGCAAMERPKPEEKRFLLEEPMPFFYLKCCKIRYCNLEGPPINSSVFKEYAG


Target: T1, recombinant LY6K protein with histidine …
Assay: QCM

Kd | Binder
0.243 nM | murine anti-LY6K antibody 22C-G8 (antibody, V domains shown) VH: QVQLQQPGAELAKPGASVKLSCKTSGYTFTSYWMHWVKQRPGQGFEWIGEINPSNGGANYNEKFKRKATLTVDKSSSTAYMQLRSLTSEDSAVYYCTMGGNFFFAYWGQGTSVTVSS VL: not shown
1.34 nM | murine anti-LY6K antibody G57 (antibody, V domains shown) VH: EVQLVESGGDLVKPGGSLKLSCAASGFTFNSYGMSWVRQTPDKRLEWVATISSGGTYTYYSDSVKGRFTISRDNAKNILYLHMSSLKSEDTAMYYCARHDWDFFDYWGQGTTLTVSS VL: DVVMTQTPLSLPVSLGDQASISCRSSQSLVHTDGDTYLNWYLQKPGQSPKLLIYKVSNRFSGVPDRFSGSGSGTDFTLKIRRVEAEDLGVYFCSQNTHVYTFGGGTKLE
0.612 nM | murine anti-LY6K antibody 28C1 (antibody, V domains shown) VH: QIQLVQSGPELKKPGETVKISCKTSGYTFTNFAMNWVKQTPGKGLRYMGWINTNTGEPTYVEEFKGRFAFSLETSASTAYLQISNLKNEDTATYFCTREWRRSYYFDYWGQGTSLTVSS VL: DIQMTQTPLSLPVSLGDQASISCRSSQTILHSNGNTYLEWYLQKPGQSLKLLIYKVSNRLSGVPDRFSGSGSGTDFTLKISRVEAEDLGVYYCFQGSHDPFTFGSGTKLE
